# Reference: the DeepSol protein solubility set
# Assay: soluble on expression in E. coli; label from the status in PepcDB or PDB records
row,Sequence,soluble on expression in E. coli
1,MSLTDPAPEPEPPVEGQWTALTASPDTWDETKRADISYQLLLYSFADSDGDGYGDLNGVTQKLDYLNQLGVKALWLSPIHPCMSYHGYDVTDYTKVNPQLGTESDFDRLVTEAHNRGIKIYLDYVMNHTGTAHPWFTEASSSSESPYRNYYSFSEDPKTDIAAGKIAMITQEGAAGYNAAEWFQVSDETAAVKGLLKFTLDWSNAPSPILVVSTGTKADEDNPDTGTDNAKYLYYGEDICKKFYDKGNNIYELTVDFESTWGLLIRTSNASFWPSGTKYGASSSSEKLALNKDFKLTNAGNPANIMFDSQQITYFHSHFCTDWFADLNYGPVDQAGESPAYQAIADAAKGWIARGVDGLRLDAVKHIYHSETSEENPRFLKMFYEDMNAYYKQKGHTDDFYMIGEVLSEYDKVAPYYKGLPALFEFSFWYRLEWGINNSTGCYFAKDILSYQQKYANYRSDYIEATKLSNHDEDRTSSKLGKSADKCKLAAAVLLTSAGHPYIYYGEELGLYGTKDNGDEYVRSPMLWGDSYTTNYTDKTDATVSKNVKTVADQQADTHSLLNIYFSLTRLRNTYPALAEGNMTKHSVYNESQEKDYKPIAAWYMTKDNEKLLVIHNFGGTAMQLPLTDKIEKVLFVNGETQQNTDSDSYTLKLGGYASVVFKLGNEGHHHHHH,soluble
2,MSLKSNVYYEELAKQNAIKTEFLPPVRGQITDRNGTLLAINDLGFSISIKPYLSIKKSNKGILDKELSELTNLFPDLNASKLAEIYKRNDSYYNQDFIKVVDFIPYDEIISHYSELNLNKTIKIDPVVKRKYPFGKLASHIIGYVGKANLQDVQENEIAKLSNYTGKSGIERYYNDILQGEKGTRVYKVNALNQEVEQLSYTPAMSNDIELTIDIELQSYLTSLFEGNAGAAIIMNVNDGSILAAGSFPEYDLNPFVTGISFKDWDELSNSLDHPFTNKLINGYYPPGSVVKMGVGLSFLNSKNISPSTHYVCNGSIELGGRFFRCWNRSGHGPVDLKHAIKYSCDVYFYNGSLQVGIDQISETLSRIGFGVKTGVDLPSEFVGTLPSKEWKMQRYRQSWFQGDTLNTAIGQGNFLATPMQIARYTAQIAKSGEVIPHFLKSIENNNTTIENQMDENKKEIFTLFEKSQLPYIRDAMYAVANEQGGTSYRYLHNLDVKVAAKTGTAQVVGFSQTDKNRVDEKQFEYYTRSHAWLTSYAPYSKPKYVVTVLLEHGGRNITSGATVAKIYQKMIELGYFKEGHHHHHH,soluble
3,MSLATLKDVAELAGVGLSTASRAISGKGPVSADAAARVKAAIAELNFRPSSIGRAMATQQLGIIGLFVPTFFGSYYGTILKQTDLELRAVHRHVVVATGCGESTPREQALEAVRFLIGRDCDGVVVISHDLHDEDLDELHRMHPKMVFLNRAFDALPDASFCPDHRRGGELAAATLIEHGHRKLAVISGPFTASDNVERLDGFFDELARHGIARDSVPLIESDFSPEGGYAATCQLLESKAPFTGLFCANDTMAVSALARFQQLGISVPGDVSVIGYDDDYSAAYAAPALTSVHIPTAELTQNAVRWLINQCYGTKWEIFREFPVTVSMRASVAREGHHHHHH,soluble
4,MKTLIARHKAGEHIGICSVCSAHPLVIEAALAFDRNSTRKVLIEATSNQVNQFGGYTGMTPADFREFVFAIADKVGFARERIILGGDHLGPNCWQQENVDAAMEKSVELVKAYVRAGFSKIHLDASMSCAGDPIPLAPETVAERAAVLCFAAESVATDCQREQLSYVIGTEVPVPGGEASAIQSVHITHVEDAANTLRTHQKAFIARGLTEALTRVIAIVVQPGVEFDHSNIIHYQPQEAQALAQWIENTRMVYEAHSTDYQTRTAYWELVRDHFAILKVGPALTFALREAIFALAQIEQELIAPENRSGCLAVIEEVMLDEPQYWKKYYRTGFNDSLLDIRYSLSDRIRYYWPHSRIKNSVETMMVNLQGVDIPLGMISQYLPKQFERIQSGELSAIPHQLIMDKIYDVLRAYRYGCAE,soluble
5,MSLKITKVEVIPISTPMKRAQLMRGATLARIDGVLLKLHSDEGLVGIADAGDTSSWYRGETQDSITSMICDFFAPKVLLGEDPTKIEKIVGRMDILTRDNNQAKATVDFALHDLVGKRFGVPVYQLLGGKTIERIPLGLVLGAGEPEAVAEEALAVLREGFHFVKLKAGGPLKADIAMVAEVRRAVGDDVDLFIDINGAWTYDQALTTIRALEKYNLSKIEQPLPAWDLDGMARLRGKVATPIYADESAQELHDLLAIINKGAADGLMIKTQKAGGLLKAQRWLTLARLANLPVICGCMVGSGLEASPAAHLLAANDWIAQFPQENAGPLHIHDCLNSRDIDNDIALNVPRFEGGYLYPNDGPGLGIELNEDLVRRLVTPGKAARVVTAEGHHHHHH,soluble
6,MGHHHHHHSHMPSCVVNPMEHTHAATAALPAAGPVNLPTGISRVPTGYPSDLKPVTWNQHQLAHLQQMCSEASGTPAPGLTGKHAAGRELAGPGFVGKAPAYPQELCLAQSFHLKPPLEKPTPSPPVNGMAAPLAYPNGHYFQPLWNNILPTPNSDSSGSQDLAMPFHGGQPTGAPLDCAAAPGAHYRAGTGGGPVASQNSLMQTVDYLSGDFQQACFREQSLAMLSKAHRAPGNRAPDPTESRSLHIQHPGYR,not soluble
7,WQYMFYSALSIFVSGKVTDAVYTKQKKMQVMIVTKNPDRVVDEIQKKMRRGITIIHEAEGAYRHDRQTVLLTIVTRFELPSLEAAMKESDPNAFVSISDNVKILGRFYEEDYK,not soluble
8,MGSDKIHHHHHHMKPLAYRMRPQSIDQVVGQQHLVGPKKIIRRMVEARQLSSMILYGPPGIGKTSIASAIAGSSKYAFRQLNAATDGQKELSQVAAEGKMSGTVVLLLDEIHRLNKVKQDFLLPLLESGQVIMIGATTENPYLAISPAIRSRCQIFELKPLTEEEILTAVDRALTDEERGLGKYHAKLTKEAGEFLAQKGNGDLRATLNSLELAVLSTKQELEAEGKDASSLTVTLDDMADSLQMKIQNFDADGDGHYDLLSAFQKSIRGSDTDAGLHYLGRLLESGDLVSICRRLSVIAYEDIGLANPPACERVILAVQAAQQLGLPEARIPLANAVIELCLSPKSNSAMTAIDAALADIRQSNVGQIPDQLKDAHYKGASKLGHGTGYLYPHDYPGDWVAQAYLPDRMQGKQYFAPKGESKFEAAFKSQYQRLHDLQKAGLKGK,not soluble
9,MEAVKTFNSELYSLNDYKPPISKAKMTQITKAAIKAIKFYKHVVQSVEKFIQKCKPEYKVPGLYVIDSIVRQSRHQFGQEKDVFAPRFSNNIISTFQNLYRCPGDDKSKIVRVLNLWQKNNVFKSEIIQPLLDMAAALEHHHHHH,soluble
10,GMTRIASHRGGTLEFGDSTPHGFTATAAMALEEVEFDLHPTADGAIVVHHDPTLDATTDMTGAIVDMTLAKVKTATIRYGAGSHPMTLEELCALYVDSHVNFRCEIKPGVDGLPYEGFVALVIAGLERHSMLERTTFSSFLLASMDELWKATTRPRLWLVSPSVLQQLGPGAVIETAIAHSIHEIGVHIDTADAGLMAQVQAAGLDFGCWAAHTPSQITKALDLGVKVFTTDRPTLAIALRTEHRMEASV,soluble
11,MSLVTFSIRIISSDRIFLVAEVKALERVYVIGHKNPDTDSVCSAIGYAHFKNNVEKGKTFIPARSGDLTNESLFVLKYFGMNPPLHIETLEPTVEDLELKNPIFVTPDTSAYDVAMLMESRGIKNVPVVSKEKMIGVVTESNIARVYVRRLKIEPLVIHPVPFDQLVRILKAEVVCDYMKEKTVSGKVHIAVDALHVLLGKIEIGDVVIVGDNEPAQIALLEKGAKLMIVVNNAPVSNRVLEIAKEKNAAVLRVKFDAFSAAKLINLSLPVTLVMSKKFPTVTKKDTLEEVKEIVFTSKIRAAFVEDEKGRLCGVITRTDLLKDVRKKVILVDHNEITQAPEGVEKAEILEIIDHHRLGGLSTLNPVFFYNEPVGSTSTIVAEFFLKNGVKMEREIAGILLSGIVSDTLFFKLSTTTEKDRKMANFLADVAKLDLEKFAKKLLKEGMKIPEDVDPAELLKRDVKVYEMGEESFAVSQIMTSDFSTLLKEKERFMNTLKTLKGEFGVKHFFVLFTNPVEEASLLMMDGDQKLVEKAFNAEKKDGLFLLKGVMSRKKDFVPKIGEVLRREREGHHHHHH,soluble
12,MSLGPYYINTHFLYGSEEKANKLLEFIDKEKENILKCPDRILEETMKNYQSDPIYRGLIDEMCDFIKNNIDVNEVDYISGGERRDWFFSPIIAKLLNKPHITIYKDLTTVVSSDGKTEELKELNGESVLHIADLITEASSYERAWIPAIKNNGGRIKWSVVVVDRKQGGAELLKSYDIKSFSMVDIDIGLFKRVLDMGLIDRGQFEMIEQYILDPKESMAKFLRKNEGHHHHHH,not soluble
